The record followed here is the Immune Epitope Database (IEDB).

pKd: −log10 of the molar value. Some results are limits rather than exact numbers.

Among the targets are HLA-A*03:01; HLA-A*33:01; HLA-A*11:01; HLA-A*31:01; HLA-A*68:01.
Test in all cases: IEDB peptide-MHC binding, purified MHC/competitive/radioactivity; filed as Kd, often an IC50 or EC50 that approximates it; ≥ and ≤ were set here for values at or beyond the usual limits of such assays
[1] abbreviates: source organism: Vaccinia virus WR.
[2] abbreviates: source organism: Lassa virus Josiah.
The mark [3] stands for this setting: source organism: SARS coronavirus Tor2.
Setting [4] is: source organism: Mammarenavirus machupoense.

For orientation: pKd means −log10 of the Kd, conventionally taken in molar units. With VTDLENRLK, the negative-log Kd (pKd) with HLA-A*03:01 (setting [1]) was 5.65; with HLA-A*33:01 (setting [1]), 4.88; in the experiment with HLA-A*11:01 (setting [1]), 7.59; with HLA-A*31:01 (setting [1]), 4.87; with HLA-A*68:01 (setting [1]), 5.14.

Take SLNRQTVSR: the negative-log Kd (pKd) with HLA-A*03:01 (setting [1]) is 7.17; in the experiment with HLA-A*33:01 (setting [1]) it was 6.54; with HLA-A*11:01 (setting [1]), 5.87; with HLA-A*31:01 (setting [1]), 8.14; with HLA-A*68:01 (setting [1]), 6.09.

MLRLFDFNK: the pKd in the experiment with HLA-A*03:01 (setting [2]) was 7.07; with HLA-A*33:01 (setting [2]) it was 6.28; in the experiment with HLA-A*11:01 (setting [2]), 7.30; in the experiment with HLA-A*31:01 (setting [2]) it was 6.89; with HLA-A*68:01 (setting [2]), 6.24.

Regarding VMHINSPFK, the negative logarithm of the Kd (pKd) was 8.74 in the experiment with HLA-A*03:01 (setting [1]); 4.97 in the experiment with HLA-A*33:01 (setting [1]); 9.65 in the experiment with HLA-A*11:01 (setting [1]); 7.70 with HLA-A*31:01 (setting [1]); 7.10 in the experiment with HLA-A*68:01 (setting [1]).

Consider ATSTGNYNYK, for which the negative-log Kd (pKd) with HLA-A*03:01 (setting [3]) is 8.36; in the experiment with HLA-A*33:01 (setting [3]), at most 4.58; with HLA-A*11:01 (setting [3]) it was 8.86; with HLA-A*31:01 (setting [3]) it was 7.16; with HLA-A*68:01 (setting [3]) it was 8.02.

As to HMVRCCKVY, the pKd with HLA-A*03:01 (setting [1]) was 6.40; in the experiment with HLA-A*33:01 (setting [1]) it was at most 4.34; with HLA-A*11:01 (setting [1]) it was at most 4.40; with HLA-A*31:01 (setting [1]), 4.97; with HLA-A*68:01 (setting [1]), 6.11.

As to QTIASKKDK, the negative-log Kd (pKd) in the experiment with HLA-A*03:01 (setting [1]) is 6.50; in the experiment with HLA-A*33:01 (setting [1]), at most 4.11; with HLA-A*11:01 (setting [1]), 6.12; with HLA-A*31:01 (setting [1]), 6.23; in the experiment with HLA-A*68:01 (setting [1]), 6.58.

Take NSISARALK: the negative logarithm of the Kd (pKd) with HLA-A*03:01 (setting [1]) is 7.10; with HLA-A*33:01 (setting [1]) it was 8.19; with HLA-A*11:01 (setting [1]), 8.40; in the experiment with HLA-A*31:01 (setting [1]), 7.95; with HLA-A*68:01 (setting [1]) it was 8.31.

HLYLQYIRK: the pKd with HLA-A*03:01 (setting [3]) is 9.76; with HLA-A*33:01 (setting [3]), 5.16; with HLA-A*11:01 (setting [3]), 7.83; in the experiment with HLA-A*31:01 (setting [3]) it was 6.29; in the experiment with HLA-A*68:01 (setting [3]), 5.79.

Consider LMAFANQIHH, for which the pKd with HLA-A*03:01 (setting [4]) is 6.03; with HLA-A*33:01 (setting [4]), at most 4.15; with HLA-A*11:01 (setting [4]), 4.82; in the experiment with HLA-A*31:01 (setting [4]), at most 4.65; in the experiment with HLA-A*68:01 (setting [4]) it was at most 4.33.

Turning to WVFGSTMNNK, the pKd with HLA-A*03:01 (setting [3]) is 6.71; in the experiment with HLA-A*33:01 (setting [3]) it was at most 4.15; with HLA-A*11:01 (setting [3]), 6.68; with HLA-A*31:01 (setting [3]), 5.23; with HLA-A*68:01 (setting [3]) it was 8.49.

Consider LSKIPYLRNY, for which the pKd with HLA-A*03:01 (setting [1]) is 5.16; with HLA-A*33:01 (setting [1]), 5.04; with HLA-A*11:01 (setting [1]), 5.58; with HLA-A*31:01 (setting [1]), 6.49; with HLA-A*68:01 (setting [1]) it was 5.02.

Consider ITLDTMDDMK, for which the pKd in the experiment with HLA-A*03:01 (setting [1]) is 5.50; in the experiment with HLA-A*33:01 (setting [1]), at most 4.15; in the experiment with HLA-A*11:01 (setting [1]), 7.37; in the experiment with HLA-A*31:01 (setting [1]), 4.78; with HLA-A*68:01 (setting [1]) it was 6.91.

As for FVSLVKKNK, the pKd with HLA-A*03:01 (setting [1]) was at most 4.11; with HLA-A*33:01 (setting [1]) it was at most 4.47; in the experiment with HLA-A*11:01 (setting [1]), 6.92; with HLA-A*31:01 (setting [1]) it was at most 4.11; with HLA-A*68:01 (setting [1]), 6.67.

In the case of ESRDRKWLYY, the pKd with HLA-A*03:01 (setting [1]) is 4.94; with HLA-A*33:01 (setting [1]), at most 4.15; in the experiment with HLA-A*11:01 (setting [1]), at most 4.23; with HLA-A*31:01 (setting [1]), at most 4.15; in the experiment with HLA-A*68:01 (setting [1]) it was 4.97.

For SINVTIPEQY, the pKd is 4.72 in the experiment with HLA-A*03:01 (setting [1]); 4.89 with HLA-A*33:01 (setting [1]); 6.11 with HLA-A*11:01 (setting [1]); 5.09 in the experiment with HLA-A*31:01 (setting [1]); 5.28 with HLA-A*68:01 (setting [1]).

As for AQYKCVTIKY, the pKd with HLA-A*03:01 (setting [1]) was 6.66; with HLA-A*33:01 (setting [1]), at most 4.66; in the experiment with HLA-A*11:01 (setting [1]), 7.10; in the experiment with HLA-A*31:01 (setting [1]), 5.67; with HLA-A*68:01 (setting [1]) it was 6.01.

In the case of ISSRVDRYSK, the negative-log Kd (pKd) in the experiment with HLA-A*03:01 (setting [1]) was at most 4.56; with HLA-A*33:01 (setting [1]), at most 4.15; with HLA-A*11:01 (setting [1]), 6.54; with HLA-A*31:01 (setting [1]) it was 5.14; in the experiment with HLA-A*68:01 (setting [1]) it was 6.06.

With CAMPYNILDR, the negative-log Kd (pKd) was 5.14 with HLA-A*03:01 (setting [1]); 6.19 in the experiment with HLA-A*33:01 (setting [1]); 6.73 with HLA-A*11:01 (setting [1]); 6.52 in the experiment with HLA-A*31:01 (setting [1]); 8.06 with HLA-A*68:01 (setting [1]).

Turning to HIVGKSCPK, the pKd is 4.96 in the experiment with HLA-A*03:01 (setting [2]); at most 4.62 in the experiment with HLA-A*33:01 (setting [2]); 4.82 with HLA-A*11:01 (setting [2]); at most 4.35 with HLA-A*31:01 (setting [2]); at most 4.57 with HLA-A*68:01 (setting [2]).
